Experimental data taken from patent US7910550B2, “Human kunitz-type inhibitor with enhanced antifibrinolytic activity” (STC.UNM, priority 2004, dated 2011).
Substitutions are numbered along the chain they refer to. Names and notes keep the numbering of the source.

Key:
[1] = test system: human umbilical vein endothelial cells (HUVECs); test: In vitro human endothelial cell angiogenesis assay (capillary tube formation on ECMATRIX); assay type: cell-based
Source text: The angiogenesis assay is commercially available from Chemicon International, Inc. (Temecula, Calif.), and involves growing human umbilical vein endothelial cells (HUVECs) on a proprietary matrix, followed by assessing angiogenesis on this matrix by counting new branch points in sprouting endothelial cells.
A semi-quantitative assay for in vitro angiogenesis was utilized. Human umbilical vein endothelial cells (HUVEC, Clonetics Corp., Walkersville, Md.) were maintained in 25 cm^2 flasks in EGM-2 media (Clonetics Corp.) supplemented with 2% fetal bovine serum, gentamicin, amphotericin-B, hEGF, hydrocortisone, VEGF, hFGF-B, R^3-IGF-1, ascorbic acid and heparin. For assay, a 48-well tissue culture plate was coated with 100 μl of ECMATRIX (Chemicon International, Inc., Temecula, Calif.) followed by incubation at 37° C. for one hour. Approximately 5×10^4 cells were then seeded onto the surface of the polymerized matrix. Varying concentrations of full-length human TFPI-2, diluted in EGM-2 media and filtered, were added to the wells and plate was placed in 37° C.-humidified CO2 incubator. Each treatment was performed in duplicate wells. Separately, VEGF was used as a positive control. The three-dimensional organization of cells was examined every hour under an inverted photomicroscope. The capillary tube branch point formation was counted in each well following eight hours of incubation. For each concentration, eight randomly chosen areas under 250× magnified field were observed. The results are expressed as number of branching points (mean±SEM) and the differences between each mean value was tested by one way analysis of variance (ANOVA). Statistically p-value <0.05 was accepted.
To examine the effect of full-length human TFPI-2 on morphogenesis (capillary-like tube formation) of endothelial cells, HUVECs were seeded on the matrigel and treated with full-length human TFPI-2 (0.2 μM-5 μM).

[2] = test system: murine model of allergic asthma; test: Murine model of allergic asthma (OVA-immunized B6D2F1 mice); assay type: in vivo; conditions: lateral tail vein, days 11-14; vs vehicle treated mice
Description: B6D2F1 mice were immunized with ovalbumin (OVA) adsorbed to alum (days 0 and 5) and received two OVA aerosols on day 12. A subgroup of mice were treated with hexahistidine-tagged KD1, delivered via the lateral tail vein, on days 11-14. Mice were sacrificed on day 15 for the enumeration and differentiation of cells in the airway and lung tissue compartments.

[3] = test system: HT-1080 cells; test: Apoptosis detection by AO/EB staining; assay type: cell-based, human; conditions: 1 μM, 48 h; approximately 5% in vehicle-treated cells
Description: (§1) All cell lines were maintained in Dulbecco's minimal essential medium (DMEM), supplemented with heat-inactivated 10% fetal bovine serum and penicillin-streptomycin. The cells were cultured either in 6- or 12-well plates at 37° C. in a humidified atmosphere containing 6% CO2. At confluence, the cells were treated with fresh medium containing either wild-type TFPI-2, R24K KD1, or R24Q KD1. Cells were treated in duplicate with purified proteins at concentrations ranging from 0.5 μM to 10 μM for different time intervals. One set were also treated with PBS to serve as a control. The Limulus Amebocyte Lysate (LAL) assay was performed on each protein preparation to determine the presence of any endotoxin/LPS, and only trace amounts of endotoxin (<0.5 ng/L) were detected in each protein preparation.
Cells were grown to confluence in two-chamber culture slides containing 2 ml medium. For AO/EB staining, the cultures were treated with recombinant proteins as described above. […] Cells were viewed within 30 minutes of staining and counted using a Zeiss axiocam epifluorescence microscope (Carl Zeiss, Inc., Thornwood, N.Y.) equipped with a triple cube filter [DAPI/FITC/RITC]. […] Experiments were performed in triplicate, and a minimum of 100 total live and apoptotic cells were counted in each treatment.

[4] = test system: HT-1080 cells; test: FACS analysis of apoptosis with annexin V/propidium iodide; assay type: cell-based, human; conditions: 1 μM, 48 hours
Description: as §1
To assess the degree of apoptosis between the various treatments, cells were grown to confluence in 6 well plates and treated with either proteins or vehicle as described earlier. For annexin V staining, approximately 1.2×10^6 cells were harvested with PBS containing 1 mM EDTA and washed twice gently with cold PBS. The cells were suspended in 100 μl of cold binding buffer (10 mM Hepes (pH 7.4), 140 mM NaCl, 2.5 mM CaCl2), and subsequently incubated at room temperature in the dark for 25 minutes with 5 μl of FITC-conjugated annexin V and 10 μl of propidium iodide (50 μg/ml stock). The cells were then washed in 500 μl of binding buffer to remove unbound reagents, centrifuged at 900×g for 5 minutes, and resuspended in 1 ml of cold binding buffer. The labeled cells were then analyzed using a FACSCALIBUR flow cytometer (Becton Dickinson, San Jose, Calif.) and the data analyzed using […] software.

[5] = test system: HT-1080 cells; test: Western blot of cell extracts (Bax, Bcl-2, cleaved caspase-9, cleaved caspase-3); assay type: cell-based, human; conditions: 1 μM, 48 hours; vs vehicle-treated cells
Description: Cell extracts were analyzed for the pro-apoptotic Bax, the anti-apoptotic Bcl-2, cleaved caspase-9 and cleaved caspase-3 by immunoblotting techniques. Approximately, 1×10^6 HT-1080 cells were grown to confluence in 6-well plates and treated with recombinant proteins and vehicle as described above. Both floating and adherent cells were harvested and washed twice with cold PBS. The cells were lysed by sonication in 500 μl of lysis buffer containing of 125 mM Tris-HCl (pH 6.8), 2% SDS, 10% glycerol, 50 mM sodium phosphate, 1 mM PMSF and protease inhibitor cocktail. The lysate was kept on ice for about 10 minutes, centrifuged for 15 minutes at 10,000×g at 4° C., and the supernatant recovered. The supernatants were boiled for 3 min and 50 μg of lysate protein subjected to SDS-PAGE in 4-20% polyacrylamide gradient gels. […] The nitrocellulose membranes were then probed with specific antibodies dissolved in fresh blocking buffer, and immunoreactive proteins were identified using HRP-conjugated secondary antibodies and a chemiluminescent reagent system essentially as described in Kempiah et al., Mol. Cancer, 6:20, 2007. Separate blots were treated with mouse monoclonal anti-α-tubulin antibody in order to verify equal loading of lysate proteins onto the gel.

[6] = test system: trypsin; conditions: relative to TFPI-2; cited from earlier work
[7] = target: plasmin (Homo sapiens, UniProt P00747); conditions: relative to TFPI-2; cited from earlier work
[8] = target: factor VIIa-tissue factor complex (Homo sapiens, UniProt P08709); conditions: relative to TFPI-2; cited from earlier work
factor VIIa-tissue factor complex, sequence (P08709 213-466 limits assumed): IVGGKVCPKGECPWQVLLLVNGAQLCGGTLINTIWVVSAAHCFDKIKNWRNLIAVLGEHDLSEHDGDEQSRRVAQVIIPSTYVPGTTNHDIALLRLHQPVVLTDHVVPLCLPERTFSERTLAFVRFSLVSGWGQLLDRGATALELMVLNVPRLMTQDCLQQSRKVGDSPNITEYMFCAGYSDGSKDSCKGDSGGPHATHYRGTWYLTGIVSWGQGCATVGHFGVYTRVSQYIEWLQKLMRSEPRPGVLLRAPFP
factor VIIa-tissue factor complex, sequence (P08709 61-212 partner limits assumed): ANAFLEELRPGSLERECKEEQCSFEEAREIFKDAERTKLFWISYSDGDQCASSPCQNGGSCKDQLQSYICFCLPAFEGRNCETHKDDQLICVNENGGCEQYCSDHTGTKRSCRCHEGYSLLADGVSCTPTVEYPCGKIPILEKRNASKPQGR
factor VIIa-tissue factor complex, sequence (P13726 33-295 partner): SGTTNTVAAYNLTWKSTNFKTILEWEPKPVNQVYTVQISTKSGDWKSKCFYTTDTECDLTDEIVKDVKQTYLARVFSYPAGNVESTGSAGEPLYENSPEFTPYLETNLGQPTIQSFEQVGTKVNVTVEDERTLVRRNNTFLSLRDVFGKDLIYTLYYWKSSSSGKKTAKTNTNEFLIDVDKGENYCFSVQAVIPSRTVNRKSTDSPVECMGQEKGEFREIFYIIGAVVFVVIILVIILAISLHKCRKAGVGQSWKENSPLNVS

plasmin, sequence (P00747 581-810 limits assumed, species assumed): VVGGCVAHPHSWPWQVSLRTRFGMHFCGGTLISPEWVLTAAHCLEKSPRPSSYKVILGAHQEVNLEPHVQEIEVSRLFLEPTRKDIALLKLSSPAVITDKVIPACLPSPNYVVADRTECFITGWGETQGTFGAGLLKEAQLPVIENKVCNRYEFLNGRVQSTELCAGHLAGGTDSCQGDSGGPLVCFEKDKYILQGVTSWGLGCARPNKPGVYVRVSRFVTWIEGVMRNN
plasmin, sequence (P00747 97-580 partner limits assumed, species assumed): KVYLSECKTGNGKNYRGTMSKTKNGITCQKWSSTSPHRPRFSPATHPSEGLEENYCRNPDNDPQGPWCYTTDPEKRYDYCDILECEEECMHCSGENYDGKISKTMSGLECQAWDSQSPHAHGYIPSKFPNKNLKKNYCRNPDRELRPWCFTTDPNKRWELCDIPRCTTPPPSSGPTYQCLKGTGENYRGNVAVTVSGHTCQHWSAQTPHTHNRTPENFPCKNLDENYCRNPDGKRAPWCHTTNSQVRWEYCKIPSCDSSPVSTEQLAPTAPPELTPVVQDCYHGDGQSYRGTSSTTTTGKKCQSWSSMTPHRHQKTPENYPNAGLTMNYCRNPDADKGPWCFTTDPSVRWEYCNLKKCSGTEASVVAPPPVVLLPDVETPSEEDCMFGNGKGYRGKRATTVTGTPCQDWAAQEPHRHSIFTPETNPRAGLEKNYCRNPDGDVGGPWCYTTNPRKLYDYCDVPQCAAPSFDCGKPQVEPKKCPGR

For VEGF [reference compound], the “time to first visible tube” value ([1]; approximately 4 hours in the control) was no more than 3 h and the “number of tube formation” value ([1]; positive control, compared to control HUVECs) was “significant increase in number of tube formation”.

B1: KD1: the first Kunitz-type domain of human TFPI-2 (SEQ ID NO:2), recombinant, expressed in E. coli (protein, listed as Homo sapiens)
chain: DAAQEPTGNNAEICLLPLDYGPCRALLLRYYYDRYTQSCRQFLYGGCEGNANNFYTWEACDDACWRIEKVPKV
With B1 the “inhibition of angiogenesis (capillary-like tube formation)” value ([1]; HUVECs on matrix) was “does not inhibit angiogenesis” and the “cells, macrophages and lymphocytes recoverable from the airways” value [2] was “significant decrease in the number of airway macrophages and lymphocytes”.

B2: R24Q KD1: KD1 point mutant, arginine 24 to glutamine; lacks reactive site arginine/lysine residue (protein)
chain: B1 chain with R24Q
modifications: left off: small tags and cut ends
With B2 the “apoptotic cells (AO/EB staining)” value [3] was 18%, the “cells in a late apoptotic stage (annexin V and PI positive)” value ([4]; vehicle 4%) was roughly 15% and the “early apoptotic cells (annexin V-FITC positive)” value ([4]; vehicle 16%) was 55%. For the same molecule, the “activated caspase 9 and activated caspase 3 (immunoblot)” value [5] was “levels were significantly lower than that observed with TFPI-2 or R24K KD1”.

B3: R24Q TFPI-2: full-length TFPI-2 mutant, P1 arginine R24 to glutamine; inactive mutant (protein)
chain: DAAQEPTGNNAEICLLPLDYGPCQALLLRYYYDRYTQSCRQFLYGGCEGNANNFYTWEACDDACWRIEKVPKVCRLQVSVDDQCEGSTEKYFFNLSSMTCEKFFSGGCHRNRIENRFPDEATCMGFCAPKKIPSFCYSPKDEGLCSANVTRYYFNPRYRTCDAFTYTGCGGNDNNFVSREDCKRACAKALKKKKKMPKLRFASRIRKIRKKQF
For B3, the “inhibitory activity toward trypsin” value [6] is listed as 5-10%, the “lost inhibitory activity towards trypsin” value [6] is listed as greater than 90% and the “inhibitory activity toward plasmin” value [7] is listed as 5-10%. For the same molecule, the “lost inhibitory activity towards plasmin” value [7] was greater than 90%, the “inhibitory activity toward factor VIIa-tissue factor complex” value [8] was 5-10% and the “lost inhibitory activity towards factor VIIa-tissue factor complex” value [8] was greater than 90%.
